Measured values taken from the supplement of paper PMC9170038.

Test system: MS2 coat protein
Assay: apparent KD of MS2 coat protein; designed switch direction (-1 OFF switch, 1 ON switch): -1; higher = weaker reporter binding
In short: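 On Illumina chips, designed RNA switches with common flanks were made by stalled E. coli RNA polymerase. Titrations with SNAP-549-labelled MS2 coat protein, doubling from 0.7 or 1.5 nM to 3 µM, were done with no input, with 200 uM small-molecule ligand, or with an oligonucleotide input. Apparent KD is the median per design over clusters, from curve fits of normalised cluster fluorescence.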

[1] = input ligand: microRNA oligo, concentration not stated
[2] = Eterna round: R95, input ligand: microRNA oligo, concentration not stated

| Sequence | apparent KD of MS2 coat protein (input ligand: FMN 200 uM) [nM] | apparent KD of MS2 coat protein (input ligand: none) [nM] | other results |
| --- | --- | --- | --- |
| UCUCGCUGGCGAGGAUAUCCUGUGCGGUUCCGGCUCGUGUCUGUUACAUGAGGAUCACCCAUGUGGGAGAAGGUGCCUGUGGCC [Design 95] (Eterna round: R96, puzzle: Exclusion NG 2) | 21.1 | 21 | apparent KD of MS2 coat protein [1]: 15.6 nM |
| GGUUAGCGAGGAUAUACAUGAGGAUCACCCAUGUGAUCCUAAGGCUGAUCAAGCCUAUGUAGAAGGCGCAAAUC [salish99_ex3_r4_008] (Eterna round: R97, puzzle: Exclusion 3) | 40.1 | 227 | – |
| GGAGAUCGAGGAUAUACAUGAGGAUCACCCAUGUCCGUAGACUGGGAUCGCGGCAGUGGUAGAAGGUGGAAAAU [Eternabot (L2) Solution 67] (Eterna round: R97, puzzle: Exclusion 3) | 112 | 160 | – |
| CGUUGGAAAGGAUAUACAUGAGGAUCACCCAUGUGAAAUUAUAGUGAGGAAAUGAAAAGUAGAAGGUUCUGACA [Mod of Mat 6 - Jieux - Exclusion 3] (Eterna round: R97, puzzle: Exclusion 3) | 61.2 | 25 | – |
| UCUAGACAUGAGGAUCACCCAUGUGAGGAUAUGAUGCGAAUAAAGAAAGAAGAAAGCAUCAGAAGGCACAUAUG [Fiskers Ex 1 - 3] (puzzle: Exclusion 1) | – | – | apparent KD of MS2 coat protein (Eterna round: R95, input ligand: FMN 200 uM): 210 nM; apparent KD of MS2 coat protein [2]: 116 nM; apparent KD of MS2 coat protein (Eterna round: R95, input ligand: none): 191 nM |
| AUCGGGUCAGGAUAUCAUAGGAGCUGAUAUCCUCGGCUCGGUGAGAAGGGACUUGAGGAUCACCCAAGUAGGGC [Ririonte] (Eterna round: R97, puzzle: Exclusion 4) | 44.4 | 46.1 | – |
| GUCGUGCGGCUUUGCUGUACGAGUACAUGAGGAUCACCCAUGUAGGAUAUGGUUCGUUUUGCGUGCUAGAAGGGCGUGCGUUUU [Excl-NG3-LRO16] (Eterna round: R96, puzzle: Exclusion NG 3) | 22.4 | 22.1 | apparent KD of MS2 coat protein [1]: 17.3 nM |
| GUUUUACAUGAGGAUCACCCAUGUGAGGAUAUGUUAUUAAUAGCGAUAGUUAUUGGUGGCAGAAGGCGCGUGAU [JR_Exc1_Sub011] (Eterna round: R97, puzzle: Exclusion 1) | 343 | 82.6 | – |
| CUCAUGUCAGGAUAUUAAGUCCGUAGCCUAUGGCUGCAACAUGAGAAGGGACAUGAGGAUCACCCAUGUCGGGA [Edceleon] (puzzle: Exclusion 4) | – | – | apparent KD of MS2 coat protein [2]: 34.3 nM |
| ACAAGCUUUUAGAUUUUCAACAUGAGGAUCACCCAUGUUCGUCUUAUGCUAGUGCUAGUGCGGUGUACUGGUAUUAG [JL TOV1 3.80 sellena mod] (Eterna round: R97, puzzle: Sensor, turn-off variant 1) | 16.9 | 16 | – |
| AUAAUGUGAGGAUAUCACGGCCCGGUAAAUCCGGUAAACGAUGAGAAGGCACAUGAGGAUCACCCAUGUUCCUG [EX4 A.2] (Eterna round: R97, puzzle: Exclusion 4) | 45.7 | 16.2 | – |
| AAACCCUGAGGAUAUACAUAACAACAAAUCCUCACGUGCCAACAUGAGGAUCACCCAUGUAGAAGGCAGGCCAA [Mod R3 Insanara 5 - Jieux - Exclusion 2] (Eterna round: R97, puzzle: Exclusion 2) | 49.2 | 15.8 | – |
| GAAGCACAUGAGGAUCACCCAUGUGAGGAUAUCCGUCUGGUCCGGCCGGGCCAGUACCGGAGAAGGCGCGUCGA [Excls1-Va] (puzzle: Exclusion 1) | – | – | apparent KD of MS2 coat protein [2]: 27.6 nM |
| CCAGCGUAUGUGAGGAUAUGCUGGUCCUUGGAUCAGCAGAAGGCACAUGAGGAUCACCCAUGUGGAGACGUUGG [JL bmx4 3.42] (puzzle: Brourd's mod of Exclusion 4) | – | – | apparent KD of MS2 coat protein [2]: 18 nM |
| AUCUACCGAGCAGGAUAUCCAGGCACAUGAGGAUCACCCAUGUCAGGGAGAGAAGUUGUUUGCGUGGAGAAGGGCUAUAAAUUA [Isdiatte] (Eterna round: R96, puzzle: Exclusion NG 2) | 314 | 162 | apparent KD of MS2 coat protein [1]: 163 nM |
| CUUGAGCAGGUAGGAUAUACGAUGUGUCGGCGAGUAGAAGGACCUGCGAUCCACUUGAGGAUCACCCAAGUUCGCAGGAGAACA [Mutated MS2 EX1.18] (Eterna round: R96, puzzle: Exclusion NG 1) | 103 | 33.4 | apparent KD of MS2 coat protein [1]: 22 nM |
| AAACUGUGAGGAUAUGGUGAGUAGUGCCUGAGCGCUGCUCACCAGAAGGCACAUGAGGAUCACCCAUGUAUAAC [Mat - Exclusion 4 - Mod of JL - D5] (puzzle: Exclusion 4) | – | – | apparent KD of MS2 coat protein [2]: 22.4 nM |
